What is called EC50 is the concentration giving half of the maximal effect. A high value points to weaker potency.

The text below walks through data of patent publication US20110250165A1.

Experiment [1] concerns the target 2444b CXCR2/CXCR4 chimera (human) (UniProt P25025). As to the kind of experiment: FACS on 293T cells expressing CXCR4 variants.
Experiment [2] addresses human CXCR4 (wild type) (human) (UniProt P61073). As to the kind of experiment: FACS on 293T cells expressing CXCR4 variants.
For the next experiment, the target named is 4442 CXCR2/CXCR4 chimera. As to the kind of experiment: FACS on 293T cells expressing CXCR4 variants.
The target in a further experiment is ΔN25-CXCR4 (human) (UniProt P61073). The experiment is described as follows: FACS on 293T cells expressing CXCR4 variants.
In a further experiment the target is 2442 CXCR2/CXCR4 chimera. The experiment is described as follows: FACS on 293T cells expressing CXCR4 variants.
Another experiment has as its target ΔN31-CXCR4 (human) (UniProt P61073). The experiment is described as follows: FACS on 293T cells expressing CXCR4 variants.
The target in experiment [3] is CF2ThCXCR4 (human) (UniProt P61073). As to the kind of experiment: FACS binding; CF2ThCXCR4 cells, MFI. Background: Flow cytometry measures light scatter and fluorescence of single cells or particles in a stream.
Experiment [4] deals with CXCR4 (Jurkat) (human) (UniProt P61073). As to the kind of experiment: FACS binding; Jurkat cells, MFI.
The target of experiment [5] is CF2ThCXCR4 (human) (UniProt P61073). The experiment is described as follows: FACS binding; CF2ThCXCR4 cells, % positive.
The target of experiment [6] is CXCR4 (Jurkat) (human) (UniProt P61073). As to the kind of experiment: FACS binding; Jurkat cells, % positive.

Sequence of CXCR4 (Jurkat) (human) (P61073 whole entry): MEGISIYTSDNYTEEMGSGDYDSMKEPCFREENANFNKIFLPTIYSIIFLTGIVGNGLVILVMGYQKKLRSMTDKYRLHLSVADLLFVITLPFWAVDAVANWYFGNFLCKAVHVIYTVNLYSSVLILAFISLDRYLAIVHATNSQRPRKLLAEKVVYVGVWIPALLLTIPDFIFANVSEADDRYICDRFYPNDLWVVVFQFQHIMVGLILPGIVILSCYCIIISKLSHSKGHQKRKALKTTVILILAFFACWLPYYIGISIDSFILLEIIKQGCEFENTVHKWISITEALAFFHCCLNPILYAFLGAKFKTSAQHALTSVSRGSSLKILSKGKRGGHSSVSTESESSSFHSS
Sequence of CF2ThCXCR4 (human) (P61073 whole entry): as above
Sequence of 2444b CXCR2/CXCR4 chimera (human) (P25025 other isoform, or with tags, fused parts or gaps mutant limits assumed): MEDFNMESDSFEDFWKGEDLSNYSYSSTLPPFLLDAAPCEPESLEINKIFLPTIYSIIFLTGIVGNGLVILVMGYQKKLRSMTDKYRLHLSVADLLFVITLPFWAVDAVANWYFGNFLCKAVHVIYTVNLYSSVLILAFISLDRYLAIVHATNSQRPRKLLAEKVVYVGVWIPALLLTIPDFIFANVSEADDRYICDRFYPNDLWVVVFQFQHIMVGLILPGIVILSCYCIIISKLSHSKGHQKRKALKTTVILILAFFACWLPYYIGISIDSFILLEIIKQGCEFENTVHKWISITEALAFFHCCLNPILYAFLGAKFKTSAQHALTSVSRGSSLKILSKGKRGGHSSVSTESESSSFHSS
Sequence of human CXCR4 (wild type) (human) (P61073 whole entry): as the sequence (P61073 whole entry) above

As for murine monoclonal antibody 12G5, the binding (+%) in experiment [1] stood at 70.1%; in experiment [2], 100%; with 4442 CXCR2/CXCR4 chimera, 103%; with ΔN25-CXCR4 (human) it was 69.2%; in the experiment with 2442 CXCR2/CXCR4 chimera it was 85.8%; with ΔN31-CXCR4 (human), 55.4%.

Turning to 12G5, the EC50 turned out to be 0.7 µg/mL in the experiment with CF2ThCXCR4 (human) [3], 16.9 µg/mL with CXCR4 (Jurkat) (human) [4], 0.005 µg/mL with CF2ThCXCR4 (human) [5] and 0.06 µg/mL with CXCR4 (Jurkat) (human) [6].
